{
  "source": "patent US20100216170A1",
  "key": {"[1]": {"target": "mutant membrane-bound TNFα on stably transfected CHO cells (B-220 cells) (UniProt P01375)", "sequence (P01375 whole entry, change not shown)": "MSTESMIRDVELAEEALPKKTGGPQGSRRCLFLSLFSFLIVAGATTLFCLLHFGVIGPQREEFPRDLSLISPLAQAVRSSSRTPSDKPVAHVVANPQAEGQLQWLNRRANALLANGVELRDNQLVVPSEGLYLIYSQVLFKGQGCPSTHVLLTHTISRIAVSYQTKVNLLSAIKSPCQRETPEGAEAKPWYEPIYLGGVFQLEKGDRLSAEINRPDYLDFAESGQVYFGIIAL", "test": "FACS, beads with CHO-TNFα (B220), sample 2"}, "[2]": {"target": "mutant membrane-bound TNFα on stably transfected CHO cells (B-220 cells) (UniProt P01375)", "test": "FACS, gate P4 (CHO cells with anti-CD19 beads), FIG. 4"}, "[3]": {"target": "mutant membrane-bound TNFα on stably transfected CHO cells (B-220 cells) (UniProt P01375)", "test": "FACS, gate P4 (CHO cells with anti-CD19 beads), middle panel of FIG. 3"}},
  "data": [
    {"substance": "APC-labeled unrelated antibody (anti-CD19) coated on beads", "values": [
      {"measurement": "% bound beads", "setting": "[1]", "result": 0.9, "unit": "%"},
      {"measurement": "#Events", "setting": "[2]", "result": 2, "unit": "events"},
      {"measurement": "% Parent", "setting": "[2]", "result": 0, "unit": "%"},
      {"measurement": "% Total", "setting": "[2]", "result": 0, "unit": "%"},
      {"measurement": "#Events", "setting": "[3]", "result": 6, "unit": "events"},
      {"measurement": "% Parent", "setting": "[3]", "result": 0.1, "unit": "%"},
      {"measurement": "% Total", "setting": "[3]", "result": 0.1, "unit": "%"}
    ]}
  ]
}
